Data taken from patent publication US20260116991A1 (HAINAN SIMCERE ZAIMING PHARMACEUTICAL, published 2026).

Target: T1, murine GPC3-His protein (Sino Biological, Cat. No. 50989-M08B) (murine, UniProt Q8CFZ4 25-558)
T1 construct: Bought protein; also called murine GPC3 protein; mouse GPC3-his protein; not shown: His tag
Assay: ELISA, coated antigen

T1 sequence (Q8CFZ4 25-558 limits assumed): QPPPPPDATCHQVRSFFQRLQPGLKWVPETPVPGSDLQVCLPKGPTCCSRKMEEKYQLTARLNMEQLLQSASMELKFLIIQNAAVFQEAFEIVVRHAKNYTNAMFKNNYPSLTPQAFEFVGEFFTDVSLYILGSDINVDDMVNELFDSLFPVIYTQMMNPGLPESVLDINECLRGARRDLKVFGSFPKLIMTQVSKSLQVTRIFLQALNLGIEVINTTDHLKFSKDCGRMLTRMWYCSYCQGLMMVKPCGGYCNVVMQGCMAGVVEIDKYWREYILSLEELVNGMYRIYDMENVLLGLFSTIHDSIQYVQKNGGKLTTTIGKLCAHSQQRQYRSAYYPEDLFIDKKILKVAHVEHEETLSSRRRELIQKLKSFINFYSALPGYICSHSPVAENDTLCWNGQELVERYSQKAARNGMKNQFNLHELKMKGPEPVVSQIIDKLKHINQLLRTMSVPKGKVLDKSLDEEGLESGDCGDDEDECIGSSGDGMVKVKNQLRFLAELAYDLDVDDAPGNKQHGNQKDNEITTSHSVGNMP

Binder	binding result
hAb005LH3L1b (antibody, human IgG1, V domains shown, Humanized F3.54.12) VH: EVQLVQSGAEVKKPGASVKVSCKASGYTFTDYEMHWVRQAPGQGLEWIGAIDPETGNTAYIQKFKGRATLTTDKSTSTAYMELRSLRSDDTAVYYCTRFYSYSHWGQGTTVTVSS VL: DIVMTQTPLSLPVTPGEPASISCRSSQSLVHSNRNTYLHWYLQKPGQSPQLLIYKVSNRFSGVPDRFSGSGSGTDFTLKISRVEAEDVGVYYCSQNTHVPPTFGGGTKVEIK	no binding
hAb007LH2L1 (antibody, human IgG1, V domains shown, Humanized F3.81.19) VH: EVQLVQSGAEVKKPGSSVKVSCKASGYTFTDYEMHWVRQAPGQGLEWMGTIDPETGNTAYNQKFKGRVTITADKSTSTAYMELSSLRSEDTAVYYCTRPYSLTYWGQGTLVTVSS VL: DIVMTQTPLSLPVTPGEPASISCRSSQSFVHSNGDTYLQWYLQKPGQSPQLLIYKVSNRFSGVPDRFSGSGSGTDFTLKISRVEAEDVGVYYCFQGSHVPYTFGQGTKLEIK	no binding
hAb006LH1L1 (antibody, human IgG1, V domains shown, Humanized F3.38.7) VH: EVQLVQSGAEVKKPGSSVKVSCKASGYTFSDYEIHWVRQAPGQGLEWMGAIDPKTGNTAYNQKFMGRVTITADKSTSTAYMELSSLRSEDTAVYYCTRYFSFAYWGQGTLVTVSS VL: DIVMTQTPLSLPVTPGEPASISCRSSQTFVHSNGNTYLQWYLQKPGQSPQLLIYKVSNRFSGVPDRFSGSGSGTDFTLKISRVEAEDVGVYYCFQGSHVPYTFGQGTKLEIK	no binding
hAb007LH1L1e (antibody, human IgG1, V domains shown, Humanized F3.81.19) VH: EVQLVQSGAEVKKPGSSVKVSCKASGYTFSDYEMHWVRQAPGQGLEWMGTIDPETGNTAYNQKFKGRVTITADKSTSTAYMELSSLRSEDTAVYYCTRPYSLTYWGQGTLVTVSS VL: DIVMTQTPLSLPVTPGEPASISCRSSQSFVHSNVDTYLQWYLQKPGQSPQLLIYKVSNRFSGVPDRFSGSGSGTDFTLKISRVEAEDVGVYYCFQGSHVPYTFGQGTKLEIK	no binding
hAb007LH1L1d (antibody, human IgG1, V domains shown, Humanized F3.81.19) VH: EVQLVQSGAEVKKPGSSVKVSCKASGYTFSDYEMHWVRQAPGQGLEWMGTIDPETGNTAYNQKFKGRVTITADKSTSTAYMELSSLRSEDTAVYYCTRPYSLTYWGQGTLVTVSS VL: DIVMTQTPLSLPVTPGEPASISCRSSQSFVHSNSDTYLQWYLQKPGQSPQLLIYKVSNRFSGVPDRFSGSGSGTDFTLKISRVEAEDVGVYYCFQGSHVPYTFGQGTKLEIK	no binding
hAb006LH2L1b (antibody, human IgG1, V domains shown, Humanized F3.38.7) VH: EVQLVQSGAEVKKPGSSVKVSCKASGYTFTDYEIHWVRQAPGQGLEWMGAIDPKTGNTAYNQKFMGRVTITADKSTSTAYMELSSLRSEDTAVYYCTRYFSFAYWGQGTLVTVSS VL: DIVMTQTPLSLPVTPGEPASISCRSSQTFVHSNANTYLQWYLQKPGQSPQLLIYKVSNRFSGVPDRFSGSGSGTDFTLKISRVEAEDVGVYYCFQGSHVPYTFGQGTKLEIK	no binding
hAb006LH3L1e (antibody, human IgG1, V domains shown, Humanized F3.38.7) VH: EVQLVQSGAEVKKPGSSVKVSCKASGYTFTDYEIHWVRQAPGQGLEWMGAIDPKTGNTAYNQKFMGRVTLTADKSTSTAYMELSSLRSEDTAVYYCTRYFSFAYWGQGTLVTVSS VL: DIVMTQTPLSLPVTPGEPASISCRSSQTFVHSNVNTYLQWYLQKPGQSPQLLIYKVSNRFSGVPDRFSGSGSGTDFTLKISRVEAEDVGVYYCFQGSHVPYTFGQGTKLEIK	no binding
hAb006LH2L1 (antibody, human IgG1, V domains shown, Humanized F3.38.7) VH: EVQLVQSGAEVKKPGSSVKVSCKASGYTFTDYEIHWVRQAPGQGLEWMGAIDPKTGNTAYNQKFMGRVTITADKSTSTAYMELSSLRSEDTAVYYCTRYFSFAYWGQGTLVTVSS VL: DIVMTQTPLSLPVTPGEPASISCRSSQTFVHSNGNTYLQWYLQKPGQSPQLLIYKVSNRFSGVPDRFSGSGSGTDFTLKISRVEAEDVGVYYCFQGSHVPYTFGQGTKLEIK	no binding
hAb006LH3L1d (antibody, human IgG1, V domains shown, Humanized F3.38.7) VH: EVQLVQSGAEVKKPGSSVKVSCKASGYTFTDYEIHWVRQAPGQGLEWMGAIDPKTGNTAYNQKFMGRVTLTADKSTSTAYMELSSLRSEDTAVYYCTRYFSFAYWGQGTLVTVSS VL: DIVMTQTPLSLPVTPGEPASISCRSSQTFVHSNSNTYLQWYLQKPGQSPQLLIYKVSNRFSGVPDRFSGSGSGTDFTLKISRVEAEDVGVYYCFQGSHVPYTFGQGTKLEIK	no binding
hAb006LH2L1a (antibody, human IgG1, V domains shown, Humanized F3.38.7) VH: EVQLVQSGAEVKKPGSSVKVSCKASGYTFTDYEIHWVRQAPGQGLEWMGAIDPKTGNTAYNQKFMGRVTITADKSTSTAYMELSSLRSEDTAVYYCTRYFSFAYWGQGTLVTVSS VL: DIVMTQTPLSLPVTPGEPASISCRSSQTFVHSDGNTYLQWYLQKPGQSPQLLIYKVSNRFSGVPDRFSGSGSGTDFTLKISRVEAEDVGVYYCFQGSHVPYTFGQGTKLEIK	no binding
hAb007LH1L1 (antibody, human IgG1, V domains shown, Humanized F3.81.19) VH: EVQLVQSGAEVKKPGSSVKVSCKASGYTFSDYEMHWVRQAPGQGLEWMGTIDPETGNTAYNQKFKGRVTITADKSTSTAYMELSSLRSEDTAVYYCTRPYSLTYWGQGTLVTVSS VL: DIVMTQTPLSLPVTPGEPASISCRSSQSFVHSNGDTYLQWYLQKPGQSPQLLIYKVSNRFSGVPDRFSGSGSGTDFTLKISRVEAEDVGVYYCFQGSHVPYTFGQGTKLEIK	no binding
hAb006LH1L1a (antibody, human IgG1, V domains shown, Humanized F3.38.7) VH: EVQLVQSGAEVKKPGSSVKVSCKASGYTFSDYEIHWVRQAPGQGLEWMGAIDPKTGNTAYNQKFMGRVTITADKSTSTAYMELSSLRSEDTAVYYCTRYFSFAYWGQGTLVTVSS VL: DIVMTQTPLSLPVTPGEPASISCRSSQTFVHSDGNTYLQWYLQKPGQSPQLLIYKVSNRFSGVPDRFSGSGSGTDFTLKISRVEAEDVGVYYCFQGSHVPYTFGQGTKLEIK	no binding
hAb007LH1L1a (antibody, human IgG1, V domains shown, Humanized F3.81.19) VH: EVQLVQSGAEVKKPGSSVKVSCKASGYTFSDYEMHWVRQAPGQGLEWMGTIDPETGNTAYNQKFKGRVTITADKSTSTAYMELSSLRSEDTAVYYCTRPYSLTYWGQGTLVTVSS VL: DIVMTQTPLSLPVTPGEPASISCRSSQSFVHSDGDTYLQWYLQKPGQSPQLLIYKVSNRFSGVPDRFSGSGSGTDFTLKISRVEAEDVGVYYCFQGSHVPYTFGQGTKLEIK	no binding
hAb007LH2L1a (antibody, human IgG1, V domains shown, Humanized F3.81.19) VH: EVQLVQSGAEVKKPGSSVKVSCKASGYTFTDYEMHWVRQAPGQGLEWMGTIDPETGNTAYNQKFKGRVTITADKSTSTAYMELSSLRSEDTAVYYCTRPYSLTYWGQGTLVTVSS VL: DIVMTQTPLSLPVTPGEPASISCRSSQSFVHSDGDTYLQWYLQKPGQSPQLLIYKVSNRFSGVPDRFSGSGSGTDFTLKISRVEAEDVGVYYCFQGSHVPYTFGQGTKLEIK	no binding

Next, values leading:

binding result	Binder
no binding (tested: 100 nM)	F3.38.7 human-murine chimeric antibody (antibody, human IgG1, kappa, V domains shown, Chimeric) VH: QVQLQQSGAELVRPGASVKLSCKASGYTFTDYEIHWVKQTPVLGLEWIGAIDPKTGNTAYNQKFMGKATLTADKSSTTAYMDLRSLTSEDSAVYYCTRYFSFAYWGQGTLVTVSA VL: DVLMTQTPLSLPVSLGDQASISCRSSQTFVHSNGNTYLQWYLQKPGQSPKLLIYKVSNRFSGVPDRFSGSGSGTDFTLKISRVEAEDLGVYYCFQGSHVPYTFGSGTKLEIKR
no binding (tested: 100 nM)	F2.23.8 human-murine chimeric antibody (antibody, human IgG1, kappa, V domains shown, Chimeric) VH: QVQLQQSGAELVRPGASVKLSCKASGYTFTDYEMHWVKQTPVHGLEWFGAIDPETGGTAYNQKFRAKATLTADKSSSTAYMELRSLTSEDSAVYYCTRFYSFAYWGQGTLVTVSA VL: DVVMTQTPLSLPVSLGDQASISCRSSQSLVHSNGNTYLQWYLQKPGQSPKLLIYKVSNRFSGVPDRFSGSGSGTDFTLKITRVEAEDLGVYFCSQSTHVPYTFGSGTKLEIKR
no binding (tested: 100 nM)	F3.81.19 human-murine chimeric antibody (antibody, human IgG1, kappa, V domains shown, Chimeric) VH: QVQLQQSGAELVRPGASVKLSCKASGYTFTDYEMHWVKQTPVHGLEWIGTIDPETGNTAYNQKFKGKATLTADKSSSTAYMELRSLTSEDSAVYYCTRPYSLTYWGQGTLVTVSA VL: DVLLTQTPLSLPVSLGDQASISCRSSQSFVHSNGDTYLQWYLQKPGQSPKLLIYKVSNRFSGVPDRFSGSGSGTDFTLKISRVEAEDLGVYYCFQGSHVPYTFGSGTKLEIKR
no binding	hAb006LH3L1a (antibody, human IgG1, V domains shown, Humanized F3.38.7) VH: EVQLVQSGAEVKKPGSSVKVSCKASGYTFTDYEIHWVRQAPGQGLEWMGAIDPKTGNTAYNQKFMGRVTLTADKSTSTAYMELSSLRSEDTAVYYCTRYFSFAYWGQGTLVTVSS VL: DIVMTQTPLSLPVTPGEPASISCRSSQTFVHSDGNTYLQWYLQKPGQSPQLLIYKVSNRFSGVPDRFSGSGSGTDFTLKISRVEAEDVGVYYCFQGSHVPYTFGQGTKLEIK
no binding	hAb006LH1L1b (antibody, human IgG1, V domains shown, Humanized F3.38.7) VH: EVQLVQSGAEVKKPGSSVKVSCKASGYTFSDYEIHWVRQAPGQGLEWMGAIDPKTGNTAYNQKFMGRVTITADKSTSTAYMELSSLRSEDTAVYYCTRYFSFAYWGQGTLVTVSS VL: DIVMTQTPLSLPVTPGEPASISCRSSQTFVHSNANTYLQWYLQKPGQSPQLLIYKVSNRFSGVPDRFSGSGSGTDFTLKISRVEAEDVGVYYCFQGSHVPYTFGQGTKLEIK
no binding	hAb007LH1L1c (antibody, human IgG1, V domains shown, Humanized F3.81.19) VH: EVQLVQSGAEVKKPGSSVKVSCKASGYTFSDYEMHWVRQAPGQGLEWMGTIDPETGNTAYNQKFKGRVTITADKSTSTAYMELSSLRSEDTAVYYCTRPYSLTYWGQGTLVTVSS VL: DIVMTQTPLSLPVTPGEPASISCRSSQSFVHSNADTYLQWYLQKPGQSPQLLIYKVSNRFSGVPDRFSGSGSGTDFTLKISRVEAEDVGVYYCFQGSHVPYTFGQGTKLEIK
no binding	hAb007LH1L1b (antibody, human IgG1, V domains shown, Humanized F3.81.19) VH: EVQLVQSGAEVKKPGSSVKVSCKASGYTFSDYEMHWVRQAPGQGLEWMGTIDPETGNTAYNQKFKGRVTITADKSTSTAYMELSSLRSEDTAVYYCTRPYSLTYWGQGTLVTVSS VL: DIVMTQTPLSLPVTPGEPASISCRSSQSFVHSNRDTYLQWYLQKPGQSPQLLIYKVSNRFSGVPDRFSGSGSGTDFTLKISRVEAEDVGVYYCFQGSHVPYTFGQGTKLEIK
